B1: OR4K15 (parent)
chain: GUUAACGGUCAUAGGCCAUGGAAACUAGGAGCACCAUUUCGCUGCCAGUGAAGAAAUGAACAAAGAAAAUCUGGGCCAGGCAGGCAUCAAAAGAAAUAGUCUUGCGCUCAACCAGAAAGUCUGUAAUCAUUUUAAGGGUA

Variants of: B1
Assay: self-cleavage, relative activity (ratio to wild type); higher = more cleavage; in vitro, sequencing; the parent is a self-cleaving ribozyme

Row | Variant | self-cleavage
1 | U130C G138A | 1.41
2 | G115U A126U | 0.25
3 | A111G C121A | 0.03
4 | A116G U130C | 0.25
5 | A126G U130G | 1.19
6 | A126G U130C | 0.61
7 | U120C U124C | 0.34
8 | U122A A126G | 0.67
9 | A116U U127G | 0.11
10 | U127C A129G | 0.46
11 | A118U A135C | 0.3
12 | A118U U120C | 0.08
13 | C121U A135G | 2.01
14 | A116G A117G | 0.55
15 | A116G A117C | 0.1
16 | A114U U120C | 0.03
17 | A114U U120A | 0.05
18 | A114U U122C | 0.04
19 | A114U U122A | 0.04
20 | G115A C121A | 0.33
21 | A126G A129U | 0.83
22 | A117U U132C | 0.88
23 | C121U | 1.65
24 | C121A | 2.65

Row | Variant | self-cleavage
25 | U122A C128A | 1.32
26 | C121A U130C | 1.87
27 | A111G A134U | 0.02
28 | A117U U120C | 0.83
29 | A114C A126G | 0.02
30 | U124C A140U | 1.14
31 | U120C A135G | 1.03
32 | U120C A135U | 0.85
33 | C112U A117G | 0.01
34 | C112U U132C | 0.01
35 | A118G A129G | 0.29
36 | A118G A129U | 0.61
37 | A118G U127C | 0.24
38 | A118G U127A | 1.26
39 | A125U C128U | 1.62
40 | A117G U132A | 1.62
41 | A117G U132C | 1.85
42 | A118U U124C | 0.45
43 | C113U U131C | 0
44 | U127A U132C | 1.55
45 | A111G U130A | 0.02
46 | A111G U130C | 0.01
47 | A117C U122C | 0.4
48 | U127C G136A | 0.59

Row | Variant | self-cleavage
49 | U127C A134G | 1.09
50 | A117U U127C | 0.61
51 | A116G G123A | 0.19
52 | C128U A140U | 2.45
53 | A117U A129G | 0.47
54 | C112U U122C | 0.01
55 | A125G G137U | 0.98
56 | A125U U132C | 1.97
57 | U122A A125G | 0.55
58 | U127A A129G | 2.49
59 | G119A U139C | 2.96
60 | A116U U122A | 0.25
61 | C112G U120A | 0.01
62 | C113U U130C | 0.04
63 | A114U U139A | 0.07
64 | A118G U133A | 1.28
65 | U122C A135C | 0.54
66 | U120A U131C | 1.22
67 | U122A U130C | 0.8
68 | U120C U132C | 0.85
69 | U120C U132A | 1.42
70 | A114U A140G | 0.08
71 | A114G A140G | 0.26
72 | A114G A140U | 0.41

Row | Variant | self-cleavage
73 | A118G A140C | 1.36
74 | C112U | 0.02
75 | C112A | 0.01
76 | C112G | 0.02
77 | G119A A129U | 0.67
78 | A118G U120C | 0.44
79 | A117C A135G | 0.2
80 | A117U U124A | 0.27
81 | A111U U120A | 0.08
82 | U130C A135G | 1.89
83 | U120C C128U | 0.84
84 | A126C U132C | 0.5
85 | U122A U127C | 0.98
86 | U130A | 0.92
87 | U130C | 0.76
88 | A117G A140U | 1.12
89 | A117G A140G | 1.68
90 | A111U | 0.08
91 | C121A A126G | 1.78
92 | A117G C128U | 2.12
93 | A111G U122G | 0.01
94 | A111G U122A | 0.01
95 | A126U G137A | 1.21
96 | A126G U132A | 0.69

Row | Variant | self-cleavage
97 | A125U A135G | 0.55
98 | U127C U130C | 0.69
99 | U124A U130C | 0.1
100 | C113U G136A | 0.18
101 | A117C U139C | 0.68
102 | U127C A135U | 0.65
103 | A118U U122C | 0.89
104 | A117G U122A | 2.35
105 | A114C U131C | 0.02
106 | U130C U132A | 1.4
107 | U130C U132C | 1.17
108 | A125U U130C | 1.66
109 | A118U A129G | 0.85
110 | C112A U127C | 0.03
111 | A114G G138A | 0.76
112 | U120G U122C | 1.08
113 | A126U U130C | 1.08
114 | A116G G136A | 1.65
115 | A116G G136U | 0.74
116 | U124C A134G | 1.11
117 | U127A U133C | 2.29
118 | A117G A129U | 1.01
119 | A126G A140U | 1.58
120 | A126G A140G | 1.28

Row | Variant | self-cleavage
121 | G119A U132C | 2.46
122 | A126C U127C | 0.21
123 | C113A U130C | 0
124 | U124A A140G | 0.65
125 | C113A A116G | 0.01
126 | A114U U127A | 0.03
127 | U124G A129C | 0.33
128 | A114G A116G | 0.1
129 | A114U A118G | 0.05
130 | U120C A129U | 0.78
131 | U127A A134U | 1.36
132 | U127A A134G | 2.3
133 | A118C U139A | 1.24
134 | C112A A129G | 0.01
135 | U120C U122C | 0.32
136 | C121A U122C | 1.62
137 | U122C U127A | 2.22
138 | G119U U132C | 1.41
139 | U120C U131A | 0.52
140 | U120C A126G | 0.27
141 | U124C U132G | 0.76
142 | U122A U124A | 0.14
143 | U122C U139C | 0.78
144 | A118G A126U | 1.22

Row | Variant | self-cleavage
145 | A118G A126C | 0.84
146 | C128U U131C | 1.17
147 | A114G A118G | 0.36
148 | C113U A140G | 0.12
149 | A114G U139C | 0.32
150 | A114U A116U | 0.03
151 | A118U U131C | 0.37
152 | A111G U131C | 0.01
153 | A114C A129G | 0.01
154 | G115A U124C | 0.05
155 | A116G U122A | 0.5
156 | U122C A129G | 0.46
157 | U122G G137A | 2.2
158 | U124C G138C | 1.31
159 | A117G A126C | 1.79
160 | A118G C121A | 2.97
161 | A118G C121U | 1.94
162 | U120A U130C | 1.78
163 | A118U U132C | 0.4
164 | C121U U130C | 0.92
165 | A117G U139A | 1.85
166 | A117G U139C | 1.34
167 | A114U A135G | 0.05

Reference: the RNAGym collection of RNA variant scans (doi:10.7554/elife.90254)
